# In publication PMC11686214, “Integrative determination of atomic structure of mutant huntingtin exon 1 fibrils implicated in Huntington disease” (Nature Communications, 2024):
# Square brackets hold non-standard residues; d marks the D form. Ends that are not written are not given here.
# B1: K2Q11pGQ11K2 polyQ peptide (peptide)
# peptide: KKQQQQQQQQQQQ[dP]GQQQQQQQQQQQKK
# modifications: also: two sequential Gln uniformly 13C,15N labelled, positions not given here
# notes: written out from the printed formula K2Q11pGQ11K2; p is D-proline; also called polyQ model peptide; source: synthetic peptide (Yale University peptide facility)
# Biological target: the molecule itself
# Assay: solid-state (MAS) NMR of fibrils; synthetic peptide aggregated at 1 mg/mL in PBS pH 7.4 at 37 °C, harvested by centrifugation after 2-3 weeks; 1H-15N HETCOR, 13 kHz MAS, 275 K
protein,measurement,value
B1,binding result,binds
